Test results taken from patent US20250270343A1 (Alector, published 2025).

T1: full-length untagged human GPNMB expressed on cells (human, UniProt Q14956 23-572)
T1 sequence: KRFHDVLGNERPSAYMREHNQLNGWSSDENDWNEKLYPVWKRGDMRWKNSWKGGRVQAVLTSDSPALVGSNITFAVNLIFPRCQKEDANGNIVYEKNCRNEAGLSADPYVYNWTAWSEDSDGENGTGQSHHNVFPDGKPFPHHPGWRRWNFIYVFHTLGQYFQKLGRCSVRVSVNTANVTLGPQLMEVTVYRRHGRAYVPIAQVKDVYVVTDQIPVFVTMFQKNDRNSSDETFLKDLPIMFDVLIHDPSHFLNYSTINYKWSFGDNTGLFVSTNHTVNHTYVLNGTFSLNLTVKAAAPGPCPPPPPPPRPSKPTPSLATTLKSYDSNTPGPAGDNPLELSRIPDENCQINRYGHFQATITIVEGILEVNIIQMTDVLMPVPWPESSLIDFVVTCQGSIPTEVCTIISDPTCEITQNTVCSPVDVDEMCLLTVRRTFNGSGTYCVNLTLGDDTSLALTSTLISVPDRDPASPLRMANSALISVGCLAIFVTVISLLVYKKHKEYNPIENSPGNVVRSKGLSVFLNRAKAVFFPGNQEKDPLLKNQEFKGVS

T2: mouse GPNMB endogenously expressed on B16F10 cells (mouse, UniProt Q99P91 23-574)
T2 construct: whole, on cells; also called moGPNMB
T2 sequence (looked up): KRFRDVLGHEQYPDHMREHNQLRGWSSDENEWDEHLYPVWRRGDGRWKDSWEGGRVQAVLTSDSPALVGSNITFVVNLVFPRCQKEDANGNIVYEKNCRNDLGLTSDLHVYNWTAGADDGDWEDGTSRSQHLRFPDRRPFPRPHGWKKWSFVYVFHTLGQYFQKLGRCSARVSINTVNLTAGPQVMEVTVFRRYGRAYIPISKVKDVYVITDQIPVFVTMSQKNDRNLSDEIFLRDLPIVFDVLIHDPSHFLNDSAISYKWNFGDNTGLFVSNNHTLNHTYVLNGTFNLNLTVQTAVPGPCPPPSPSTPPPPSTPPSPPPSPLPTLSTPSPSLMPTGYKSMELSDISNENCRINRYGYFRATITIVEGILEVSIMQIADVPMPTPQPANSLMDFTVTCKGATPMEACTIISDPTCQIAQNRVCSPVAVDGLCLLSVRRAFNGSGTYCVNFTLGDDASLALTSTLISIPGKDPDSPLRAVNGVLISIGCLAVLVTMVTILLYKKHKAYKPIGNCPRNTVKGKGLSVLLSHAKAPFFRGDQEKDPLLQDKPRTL


Assays:
[1] = biological target: T1, full-length untagged human GPNMB …; experiment: cell-based or functional assay
[2] = biological target: T2, mouse GPNMB endogenously expressed on …; experiment: FACS titration, B16F10 cells
Protocol: (§1) Affinity matured anti-GPNMB antibodies of the present disclosure were examined to determine their ability to bind human and mouse GPNMB expressed on FS293-huGPNMB+ or B16F10 cells, respectively. Cell-based affinity measurements were performed to ascertain the apparent affinities of anti-GPNMB antibodies to cell-surface expressed GPNMB. Serial dilutions of anti-GPNMB antibodies of the present disclosure were added to 100,000 FS293-huGPNMB+ or B16F10 cells and allowed to achieve binding equilibrium at 4° C. After addition of fluorescently labeled secondary antibody and brief washing steps, MFI values as a function of titrated antibody concentration were recorded via FACS analysis. Equilibrium binding curves were fit using nonlinear regression analysis with Graphpad Prism 6 software.

[3] = biological target: T1, full-length untagged human GPNMB …; experiment: FACS titration, FS293-huGPNMB+ cells
Protocol: as §1

Row | Binder | EC50 GCase [1] | EC50 Lyso Tracker [1] | Fold Decrease Lyso Tracker (max response at 1 µg/ml) [1] | Fold Increase GCase (max response at 1 µg/ml) [1] | EC50 [2] | EC50 [3]
1 | anti-GPNMB antibody GPN-83 (antibody, V domains shown) VH: QVQLQESGPGLVKPSETLSLTCTVSGISITTGNYRWSWIRQPPGKGLEWIGYIDYSGTITYNPSLKSRVTITRDTSKNQFSLELSSVTAADTAVYYCARDLTHWYFDVWGQGTLVTVSS VL: DIVMTQSPDSLAVSLGERATINCKSSRSVDYYGIGFVNWYQQKPGQPPKLLIYATSIQGSGVPDRFSGSGSGTDFTLTISSLQAEDVAVYYCQQQKEVPPTFGGGTKVEIK | 0.834 nM | 1.17 nM | 0.755 fold | 1.32 fold | 0.293 nM | 0.203 nM
2 | anti-GPNMB antibody GPN-86 (antibody, V domains shown) VH: QVQLQESGPGLVKPSETLSLTCTVSGISITTGNYRWSWIRQPPGKGLEWIGYIDYSGTITYNPSLKSRVTITRDTSKNQFSLELSSVTAADTAVYYCARDLTHWYFDVWGQGTLVTVSS VL: DIVMTQSPDSLAVSLGERATINCKSSRSVDYYGIGFLNWYQQKPGQPPKLLIYATSKQGSGVPDRFSGSGSGTDFTLTISSLQAEDVAVYYCQQQKEVPPTFGGGTKVEIK | 0.166 nM | 1.2 nM | 0.731 fold | 1.34 fold | 0.178 nM | 0.203 nM
3 | anti-GPNMB antibody GPN-87 (antibody, V domains shown) VH: QVQLQESGPGLVKPSETLSLTCTVSGISITTGNYRWSWIRQPPGKGLEWIGYIDYSGTITYNPSLKSRVTITRDTSKNQFSLELSSVTAADTAVYYCARDLTHWYYDVWGQGTLVTVSS VL: DIVMTQSPDSLAVSLGERATINCKSSRSVDYYGIGFLNWYQQKPGQPPKLLIYATSKQGSGVPDRFSGSGSGTDFTLTISSLQAEDVAVYYCQQQKEVPPTFGGGTKVEIK | 0.767 nM | 1.06 nM | 0.716 fold | 1.36 fold | 0.37 nM | 0.317 nM
4 | anti-GPNMB antibody GPN-88 (antibody, V domains shown) VH: QVQLQESGPGLVKPSETLSLTCTVSGISITTGNYRWSWIRQPPGKGLEWIGYIDYSGTITYNPSLKSRVTITRDTSKNQFSLELSSVTAADTAVYYCARDLTHWYFDVWGQGTLVTVSS VL: DIVMTQSPDSLAVSLGERATINCKSSRSVDYYGIGFLNWYQQKPGQPPKLLIYATSHQGSGVPDRFSGSGSGTDFTLTISSLQAEDVAVYYCQQQKHVPPTFGGGTKVEIK |  |  |  |  | 0.262 nM | 0.192 nM
5 | anti-GPNMB antibody GPN-90 (antibody, V domains shown) VH: QVQLQESGPGLVKPSETLSLTCTVSGISITTGNYRWSWIRQPPGKGLEWIGYIDYSGTITYNPSLKQRVTITRDTSKNQFSLELSSVTAADTAVYYCARDLTHWYFDVWGQGTLVTVSS VL: DIVMTQSPDSLAVSLGERATINCKSSRSVDYYGIGFLNWYQQKPGQPPKLLIYATSHQGSGVPDRFSGSGSGTDFTLTISSLQAEDVAVYYCQQQKEVPPTFGGGTKVEIK | 0.685 nM | 1.58 nM | 0.761 fold | 1.37 fold | 0.416 nM | 0.148 nM
6 | anti-GPNMB antibody GPN-84 (antibody, V domains shown) VH: QVQLQESGPGLVKPSETLSLTCTVSGISITTGNYRWSWIRQPPGKGLEWIGYIDYSGTITYNPSLKSRVTITRDTSKNQFSLELSSVTAADTAVYYCARDLTHWYYDVWGQGTLVTVSS VL: DIVMTQSPDSLAVSLGERATINCKSSRSVDYYGIGFVNWYQQKPGQPPKLLIYATSIQGSGVPDRFSGSGSGTDFTLTISSLQAEDVAVYYCQQQKEVPPTFGGGTKVEIK |  |  |  |  | 0.33 nM | 0.241 nM
7 | anti-GPNMB antibody GPN-89 (antibody, V domains shown) VH: QVQLQESGPGLVKPSETLSLTCTVSGISITTGNYRWSWIRQPPGKGLEWIGYIDYSGTITYNPSLKSRVTITRDTSKNQFSLELSSVTAADTAVYYCARDLTHWYYDVWGQGTLVTVSS VL: DIVMTQSPDSLAVSLGERATINCKSSRSVDYYGIGFLNWYQQKPGQPPKLLIYATSHQGSGVPDRFSGSGSGTDFTLTISSLQAEDVAVYYCQQQKEVPPTFGGGTKVEIK | 0.898 nM | 1.18 nM | 0.757 fold | 1.35 fold | 0.443 nM | 0.167 nM
8 | anti-GPNMB antibody GPN-85 (antibody, V domains shown) VH: QVQLQESGPGLVKPSETLSLTCTVSGISITTGNYRWSWIRQPPGKGLEWIGYIDYSGTITYNPSLKQRVTITRDTSKNQFSLELSSVTAADTAVYYCARDLTHWYFDVWGQGTLVTVSS VL: DIVMTQSPDSLAVSLGERATINCKSSRSVDYFGIGFLNWYQQKPGQPPKLLIYATSHQGSGVPDRFSGSGSGTDFTLTISSLQAEDVAVYYCQQQKEVPPTFGGGTKVEIK | 2.2 nM | 1.39 nM | 0.755 fold | 1.31 fold | 0.317 nM | 0.385 nM
9 | anti-GPNMB antibody GPN-91 (antibody, V domains shown) VH: QVQLQESGPGLVKPSETLSLTCTVSGISITTGNYRWSWIRQPPGKGLEWIGYIDYSGTITYNPSLKSRVTITRDTSKNQFSLELSSVTAADTAVYYCARDLTHWYFDVWGQGTLVTVSS VL: DIVMTQSPDSLAVSLGERATINCKSSRSVDYYGIGFLNWYQQKPGQPPKLLIYATSHQGSGVPDRFSGSGSGTDFTLTISSLQAEDVAVYYCQQQKERPPTFGGGTKVEIK |  |  |  |  | 0.273 nM | 0.24 nM
